Assay results: patent US20130330346A1 (Novartis, published 2013)
Each block holds one binder with its values, some of them ahead of it.

Key:
Human CXCR2 [1] = target: T1, Human CXCR2 (human, UniProt P25025 1-360); assay: cell-based or functional assay
T1 sequence: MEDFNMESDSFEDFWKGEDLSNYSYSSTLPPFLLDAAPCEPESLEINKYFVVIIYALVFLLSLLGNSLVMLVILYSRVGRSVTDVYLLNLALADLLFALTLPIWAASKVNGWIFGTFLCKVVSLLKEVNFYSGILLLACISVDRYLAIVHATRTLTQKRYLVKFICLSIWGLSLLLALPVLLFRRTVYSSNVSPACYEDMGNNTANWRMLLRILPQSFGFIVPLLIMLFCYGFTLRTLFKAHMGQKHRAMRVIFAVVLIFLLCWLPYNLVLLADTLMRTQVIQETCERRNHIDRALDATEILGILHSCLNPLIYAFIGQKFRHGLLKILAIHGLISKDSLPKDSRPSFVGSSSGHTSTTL

Human CXCR2 [2] = target: T1, Human CXCR2; assay: cell-based or functional assay; remark: listed apart in the source
Cynomolgus CXCR2 [3] = target: T2, Cynomolgus CXCR2 (cynomolgus, UniProt Q28519 3-353 (rhesus entry)); assay: cell-based or functional assay
T2 chain: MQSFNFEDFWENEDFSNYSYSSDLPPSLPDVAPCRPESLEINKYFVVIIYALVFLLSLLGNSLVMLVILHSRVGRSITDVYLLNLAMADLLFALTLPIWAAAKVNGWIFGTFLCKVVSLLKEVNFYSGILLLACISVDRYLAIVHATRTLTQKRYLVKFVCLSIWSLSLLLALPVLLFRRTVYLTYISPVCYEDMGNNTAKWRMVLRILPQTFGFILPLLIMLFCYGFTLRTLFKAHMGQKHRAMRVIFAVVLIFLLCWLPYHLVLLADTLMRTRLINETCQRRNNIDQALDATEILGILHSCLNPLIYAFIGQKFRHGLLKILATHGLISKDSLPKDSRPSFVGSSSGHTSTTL

Human CXCR2 [4] = target: T1, Human CXCR2; assay: FACS competition vs 3 nM FMAT-Blue Gro-α
Protocol: (§1) Multivalent anti-CXCR2Nanobodies were titrated against 3 nM FMAT-Blue-labeled Gro-α in the FACS ligand competition assay on human and cynomolgus CXCR2 (Table 14). On human CXCR2, blocking potencies range between double digit nM and sub-nM whereas on cynomolgus CXCR2, they range between single and double digit nM.

Cynomolgus CXCR2 [5] = target: T2, Cynomolgus CXCR2; assay: FACS competition vs 3 nM FMAT-Blue Gro-α
Protocol: as §1

Human CXCR2 [6] = target: T1, Human CXCR2; assay: cell-based or functional assay; remark: listed apart in the source
Cynomolgus CXCR2 [7] = target: T2, Cynomolgus CXCR2; assay: cell-based or functional assay
Human CXCR2 [8] = target: T1, Human CXCR2; assay: cell-based or functional assay; remark: listed apart in the source
Cynomolgus CXCR2 [9] = target: T2, Cynomolgus CXCR2; assay: cell-based or functional assay
Human CXCR2 [10] = target: T1, Human CXCR2; assay: FACS hGro-α competition
Cynomolgus CXCR2 [11] = target: T2, Cynomolgus CXCR2; assay: FACS hGro-α competition

[35S]GTPγS % inhibition of max (ENA-78) (Human CXCR2 [1]): 100%
[35S]GTPγS % inhibition of max (GRO-α) (Human CXCR2 [1]): 100%
[35S]GTPγS % inhibition of max (IL-8) (Human CXCR2 [1]): 100%
[35S]GTPγS IC50 (ENA-78) (Human CXCR2 [1]): 0.707 nM
[35S]GTPγS IC50 (GRO-α) (Human CXCR2 [1]): 0.634 nM
[35S]GTPγS IC50 (IL-8) (Human CXCR2 [1]): 0.619 nM
Human Chemotaxis IC50 (rhGROα) (Human CXCR2 [2]): 0.143 nM
Human WBSC IC50 (rhGROα) (Human CXCR2 [2]): 0.17 nM
Cynomologus WBSC IC50 (rhGROα) (Cynomolgus CXCR2 [3]): 0.12 nM
% inhibition of max (Human CXCR2 [4]): 100%
IC50 (Human CXCR2 [4]): 0.99 nM
% inhibition of max (Cynomolgus CXCR2 [5]): 98.5%
IC50 (Cynomolgus CXCR2 [5]): 1.78 nM
FLIPR % inhibition of max (Human CXCR2 [6]): 100%
FLIPR IC50 (GRO-α induced calcium release) (Human CXCR2 [6]): 6.98 nM
FLIPR % inhibition of max (Cynomolgus CXCR2 [7]): 100%
FLIPR IC50 (GRO-α induced calcium release) (Cynomolgus CXCR2 [7]): 1.64 nM
B1: CXCR20020 (bispecific antibody)
chain: EVQLVESGGGLVQAGESLRLSCAASGSTFDFKVMGWYRQPPGKQREGVAAIRLSGNMHYAESVKGRFTISKANAKNTVYLQMNSLRPEDTAVYYCKVNIRGQDYWGQGTQVTVSSGGGGSGGGGSGGGGSGGGGSGGGGSGGGGSGGGGSEVQLVESGGGLVQAGGSLRLSCAASGRTFSDYAMGWFRQAPGKEREFVAAITWNGGRVFYTASVKGRFTISRDNAKNTMYLQMNSLKPEDTAVYYCAADKDRRTDYLGHPVAYWGQGTQVTVSS
notes: Biparatopic: two VHH joined by a GlySer linker; also called 127D1-35GS-163D2; 127D1-163D2; not shown: C-terminal c-myc tag and His6 tag coded by pAX100

[35S]GTPγS % inhibition of max (ENA-78) (Human CXCR2 [1]): 100%
[35S]GTPγS % inhibition of max (GRO-α) (Human CXCR2 [1]): 100%
[35S]GTPγS % inhibition of max (IL-8) (Human CXCR2 [1]): 100%
[35S]GTPγS IC50 (ENA-78) (Human CXCR2 [1]): 1.17 nM
[35S]GTPγS IC50 (GRO-α) (Human CXCR2 [1]): 0.844 nM
[35S]GTPγS IC50 (IL-8) (Human CXCR2 [1]): 0.717 nM
Human WBSC IC50 (rhGROα) (Human CXCR2 [2]): 0.24 nM
Cynomologus WBSC IC50 (rhGROα) (Cynomolgus CXCR2 [3]): 0.43 nM
% inhibition of max (Human CXCR2 [4]): 99%
IC50 (Human CXCR2 [4]): 1 nM
% inhibition of max (Cynomolgus CXCR2 [5]): 99%
IC50 (Cynomolgus CXCR2 [5]): 3.23 nM
FLIPR % inhibition of max (Human CXCR2 [6]): 100%
FLIPR IC50 (GRO-α induced calcium release) (Human CXCR2 [6]): 10.2 nM
FLIPR % inhibition of max (Cynomolgus CXCR2 [7]): 100%
FLIPR IC50 (GRO-α induced calcium release) (Cynomolgus CXCR2 [7]): 8.72 nM
B2: CXCR20035 (other)
chain: EVQLVESGGGLVQAGGSLTLSCAVSGSTFRINTMGWYRRAPGKQRELVAARDRGGYINYVDSVKGRFTVSRDNAKPTMYLQMNSLKPEDTAVYYCHAGTQDRTGRNFDRWGQGTQVTVSSGGGGSGGGGSGGGGSGGGGSGGGGSGGGGSGGGGSEVQLVESGGGLVQPGGSLRLSCVASGRIFSSNAMGWFRQAPGKEREFVAAITWRSGGSAYYADSAKGRFTISRDNAKNTVYLQMNSLKPEDTAVYYCAAGGSSWLSFPPDYWGQGTQVTVSS
notes: Biparatopic: two VHH joined by a GlySer linker; also called 54B12-35GS-163E3; 54B12-163E3; not shown: C-terminal c-myc tag and His6 tag coded by pAX100

FLIPR hGro-α IC50 (Human CXCR2 [8]): 390 nM
FLIPR hGro-α IC50 (Cynomolgus CXCR2 [9]): 19000 nM
IC50 (Human CXCR2 [10]): 1.5 nM
IC50 (Cynomolgus CXCR2 [11]): 19 nM
B3: CXCR20059 (VHH)
VHH: EVQLLESGGGLVQPGGSLRLSCAASGSILTINAMGWYRQAPGKQRELVVRRTRGGSTTYQDSVKGRFTISADISKKTMYLQMNSLRPEDTAVYYCLLDDRGGVYWGQGTLVTVSS
